Source: the supplement of paper PMC12636428

test system: Saccharomyces cerevisiae; experiment: transcriptional activation domain activity (GFP:mCherry ratio, weighted mean of sorted bins, harmonized to initial dataset scale) (arbitrary fluorescence ratio units); higher = stronger transcriptional activation; conditions: beta-estradiol 1 µM; induction time 4 h
How it was run: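 For this assay, yeast diploids with a GFP reporter carried barcoded protein tiles at URA3, each fused to an estradiol-inducible synthetic transcription factor. Induction was a 1:5 dilution into SC with 1 uM beta-estradiol for 4 hours at 30 °C, followed by sorting into 8 bins by GFP:mCherry ratio and barcode sequencing. Tiles under 50 reads were dropped, and activation activity was calculated as the read-weighted mean of bin median fluorescence, averaged across barcodes and linearly mapped onto the initial dataset scale.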

| Sequence | transcriptional activation domain activity |
| --- | --- |
| MFLTLLLGISLLPSLVIVYHLPHSLSFFFPPFLPFLLLPSILFLPGPFLRTAR | 64000 |
| RFRALRLLVIDDMIRLRDQSHCGWICTFLSSIELDVIQCINFRIWINMCPEFY | 32600 |
| KPHHKWIVPTPFASHAFHPVDGYFQSLPYHIFIFVFPMQRHLYLALFVAVNCW | 41800 |
| AAEEEEAEAQAEKEEAEAEEAEAEEELEEAQAEEAEAEEAEAEEAEAVRGAMG | < 6570 |
| RTSDRYLETLDALFVDKFVYAHAWTTFMSTCLKTWRRDCCSSAMLLLLHILCF | 54900 |
| ENVYRPFLMVYTEAIILIFSFYLIILYIVLFTFLEGYPYIFSRVYGISDSLTF | 40900 |
| LGLDSGYLWSGILYNLSVTISLYSLGMFWVCMSKDLQPFRPVPKFLCIKLIIF | 53200 |
| DFTLEQDPDVLDTWFSSGLWPFSILGWPDKTPDLKTFYPATILETGWDILFFW | 54800 |
| VVLPCLNLVLAVRKYFVRYLMMPRYSTLQVFGEENAAGYRPMLFWEIEPWYVA | 41800 |
| VHANQYYQLDVEIFKSSLDMELLGLLWNKYWINTLSQSPLISVSLFCYGHIFI | 57800 |
| MPTDHASDTPSLGESSNQGAHKGYGRACLQCRQKKRKCRPSETKPDLCLLCEK | 40000 |
| MGYYVVLLTELLISCLCSPSLLYSPFLLICDSFPCSRRVFKLAFILFYILIVT | 43400 |
| LIFSLKVLVMLICIIMIEFYITYAVAVGYIYAVAILEPFRPQLAVAFTWIRPV | 66600 |
| LFFLLLPLLLHVIRIKSNMASSWVMVPLDFQPRHLIPLVENSHCLRNLQIFWL | 71300 |
| EEEEDAETPAQESEEEKAASEPSSPPVVQQIPRKKRLGRPPKNRPPDWNAVEP | 37600 |
| MDNTTDLYNYLVDMGLKFLLFWNMVNCKFCHLCLLMPFDITYIIFIFILLLEF | 70300 |
| VDLSDLGEAVINQSNHNNDNDNSNNGDGNNNNTISELVCFDESIADLYPVEID | 71500 |
| LTVLGWLSTRKNMSFKSTPSNIRQSLKYSHIPLCLFYSSFTKFFLLLLLSIWD | 42100 |
| NNTTSLGNAYGVCVMFVTFFDSCMVSLAALIVWRLPYYVVFLPWLVFACLDGV | 52100 |
| MVFFTSSFLLGFFSFVSFRNHCSFFLMAPFLTGSELFLFFVLLFILFFFLALA | 64900 |
| FLRGLVVLLWSLDSLHLAFIVHGLYYYLIQNYGNYFSLFKPVWSFVGQILVSS | 57300 |
| FIDAAGKGGELRWNPHNKRYHLVGAEEGGKEDALSAPNKPTKPNPVLVCIYGQ | 69000 |
| SSNFQTIDNENNVKTPGNKLTDFFQQQSAGWIEGNSSNDDFFGWFDMNMEQGF | 133000 |
| SPSSGLNINFFYHEVLMVLSLFNSMTRPDVMRWYAKTRFYHIVNLTAWQIYPC | 57400 |
| KVAAGANGETDGEAKTKKKSSKRVSRRRQPGEEDDEEEAEGAGEGAEKAKKNK | 20300 |

| Sequence | transcriptional activation domain activity |
| --- | --- |
| SSSEEEVEVEVDKKTGVKRKRVKKQKVKKDVHNLVWSVVSQKKVFTDCWLGVL | 91900 |
| MSVVKEENPDTPGGTTVQDVDNRLRQLIQACSPFHMLKNHNLLVLYLLIVPSA | 53700 |
| MAPFSPFVYFFLFLVHNSWLFCFLLVCFPFFSILVFLSFCPFLSPFTSRFSFL | 56600 |
| GAVINLSLSLGRRTQVEEAIKLVRYKAHYVSGSIDHGLHRLLVWAYTLLTVRI | 57100 |
| RQREGQIERRGEGRAWRTEGGARGGRRKGARREKGTGREGRRRARKKAKRDRP | 27600 |
| MGVLLVDFLTHWILFLFCSWFMLFSFGRFFGFSGSLLVRFLPDSDLLMFLVLL | 70600 |
| LWFFFKGMDGMLHPPCSTWTFFFAKVNLYTWLRTFMKIVFVFMGLLHAIIIFW | 60200 |
| GSNIQWLVTKWREMGCRKGPIELTKFLTGLLCVNPFSLTPEKGARLLIKLLSI | 62200 |
| IARPISFFVLGASAAFTTIRALGPSTHPLISVNYFSLWCTFVSLLALLLCPLL | 58700 |
| RCGILLGSKNDGEGVDFVRVRGERIERGSSASIEEGIGEMGRSRPVRFGGGEE | 21500 |
| MARAKPTRIVESDEDDSDSGQLSSAPAKRKAGSEDANPAAKRARTASAKQKQL | 63000 |
| MLCFIDLLIFGISLCFLSLLLFLSFFLLFFFFFLVFSEEFVLLHSAAWSFILS | 41200 |
| LRNGYVDLGTHCITLFAQLMYVDCRTVFAEQIFTLAWYTTKGMGTIIATIGDY | 43400 |
| MVLLGSCTLLIGKTITPYILVHKTGILYPLLFFFFFSLSLSFFYFFIGTFPLG | 52100 |
| EEGERKGEGGKEKWERDAVGNGGRGRQGGEQEEEREEGAGGRGKGGGGRSRGK | 45900 |
| SFTNFLMALFGVLLGAIFLSIYTYYTFWRGCRSTILPCISSTWYKAFTILFYL | 47600 |
| RQIESMVAPCLVELRIWNIGAYANLCEYSTWLRLWWIRWSMYGIQFQDKTGKP | 61100 |
| DVDWWNVSSSETTFDAASLPLDVWDPLLPHDTGLSEIEVTTCWLDPWIIPFIT | 132000 |
| NKKRETRKGESTKSNDEEEEEEEDDDDEKKQGQKKQSNGQSKKSNGSSKKEED | 48700 |
| YIIPFAWLAAIGHFAVSLVIFDFAPLIHTWDVTLETLSHWLFYFRLSSILYNF | 35200 |
| MGGKASWCVFSFCLLFPLYFLLSLPPSFFIFHFYCVLALLPLPLPFPFFPSIC | 58700 |
| SHRKGIERKKRLREEERRREAKENGIVLEREKRADKGKERGRRDRGVDAPGVG | 26800 |
| KEVMDQIHAIWCILLYLYYGTLETDHVFRFCFAPNVSRPLSELEQRFFNERHG | 48000 |
| MIYLASFLLLTVDSSIWSVPITIFIPYTIYLFPPHTYICVLFARILIFHLLSF | 61200 |
| RLRVLYSAWQLHVDGKVRIGTLAIIGSFKELRYLGGKRTRRCGLVALLLLSAY | 50700 |

| Sequence | transcriptional activation domain activity |
| --- | --- |
| FPPLFVSPLRLRYPFCGILFNIDTLFFRFLLVHIWLPFFCTYLYPYLLPFHWA | 74200 |
| AATAEPEKKKGSKKDKAAAAPAPAAAPAKDAKSAKKAKKSAAPPPPPPAASSS | 15600 |
| EGEGEEEAVTLKKTKKGRGGEEEAAKKGKKKGDEEDPAWEEAAAKKGKKKGEE | 37800 |
| FMHLSRPEKLLVLKVFADLVDYARKSIDSCLSSPTVNWSFNNLLWNYCSMLLQ | 67000 |
| SGIYSGGLSLWTAFFLGYFKAFLWGSFWGWLAGYFVLLFVICVAWNPFFFLYL | 57600 |
| WDWARRYHCLAWGGEVSLLSFLPLLPVCLLSWLCRVSPIKWALVAVFFFWLLG | 65900 |
| LNILILGSVLTDFDTLLRPETMQWNPPLGVWLIWWMQWQMFIPLLILQFLNLY | 55400 |
| MTVLQYPFRFIVRTHFPLIWAYSSSLGVGYVFLIGSFFLFISLHPLPLFCLLC | 66100 |
| VVEALRLPLKPIQLLSKLFLRRLYEQDQLEEIRGIAKQIKIELYLLVALNVLL | 54000 |
| EPAEEDSKPEEPAAAAEPEAEVKEEPAEEPAAPAEPKAEAEPEKADETPAAEA | 24000 |
| RLWCFSRGFMLVNYNVLVLSCQLAWSSEFLMSFWTFVFVLILMLLYYFVWAHK | 43700 |
| GGNIHIRSLFIIAMVFLFFGLVLLTIGFFSDFRKSWFVWRLRTCWLWANGTRF | 57800 |
| MYWNYPGFIWPLGFPWFFFFFFFRSGSLLPRPCPVDTVFHFQFFFFFFFFFFF | 51300 |
| MYYDKRSAMLQGLLLMGPRACGFHWSCILAILGLATLVSVDLVQLSYHLPRAV | 32700 |
| MPKLNLYKIFLSILCSVVILVVWFPNLESILLLRVLVFHLVKYIGLCLLFFLC | 56000 |
| MLCRLCFFVFTRAVLLYLIGLFFNLFRLCLSLRFNIFVSFVFLDFCMSFPSTL | 40200 |
| AVIRKIRLLVCLAREQALRGYALEMVIHGLKPFIVDSYCSQDTIGVVQYLLHR | 46700 |
| THSKKQHCDVCKHPYSFTKVYASDMPKQLPLLLVLRKLVQQFFSVLLFSIRAI | 45400 |
| VAALLATSLCMIYPLWSIFSIVQVIYMFANICLLVWVIPKGLHFACYYLLGVS | 37400 |
| RYPFILFPFYSLLSHFLLLLTEIALCLKYCLLLSLCSPILLFLLVFLLLAFCL | 47600 |
| ELLRVLNKAHIYLMCLYLFSGLDAHMGILRDFKLIDSHYRLSLHTLICVLVSW | 71000 |
| LPTKYRVLDGLFQALAVRAGGFYVVTIANLRQGLLYVSAYPVTLTMRNTNVYE | 48900 |
| AVGLPNPHAHTLLQSLYYLRSITFSLLRLKMEQRLSLLIPSYLTIWKLDRKAL | 68400 |
| RDSKTDVEAEVEAAEKDEKKGKKRKRAEVVAAEESAEARKGKSKKSSRKGKEV | 34100 |
